Assay results: the domain aggregation screens of Martell et al. (2025)

assay: soluble fraction after stress (log2 fold change); higher = more stays soluble; pooled small domains, quantitative proteomics; conditions: stress: 75 degC
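Note: 20 min heating vs room temperature control held 20 min.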

Sequence | soluble fraction (log2)
HMNNGYSINEIAKLMKMTLKVVRRYVASGELKTTKTNNTYSISEEAFNEFKKYIEEGGDAKHAQEVADTFK | -1.09
HMNNIGENIKKYRTKQGLSQEDFAKKSGVKYTTLTKIESGVIKKPSVLVMAKIAKALGVNIEELI | -1.64
HMNNIINEAQIKQWVEEFYLSVSPRPTRATMIALVHKKIKEETKDGEEGQTVSETLINNFYTALEKEHKRK | 0.216
HMNNIPFIITDERLNVIQSHLVPREVLDHPDRLRRQIDRFTEENQPKTVNYWWGPEHRHIIFYGKSK | 0.377
HMNNIYFSPVVEENNKGLRLDKFLAASFPEFSRSQLQRLILEGNVSNDDVVIADNSQKVRVGDSFQVIVPE | -0.018
HMNNKSDLLFNHLRQRIATMENGTIFPSVRQLMTEYNVSQSTVSTAIRSLKELGLLEALSRQGMVVRKE | -1.15
HMNNLGSKIKELRIAENLTQEKLAEELNVSFQSISRWENGISTPDISLIPAIARFFGVSTDYLFGLQD | -1.82
HMNNLPDFIKQLRKENNLTQEYVASEIGVSRPTYEQIEKGKRELTISEAEKLAKIFNIPLENFLQGKKGV | 0.122
HMNNPLPDLLKYFRKKKHLTQEQVAKQLSVSRASYASYETGRIIPGMQHIMELSRILEHDFLFAYTLAVQ | -2.41
HMNNPNFAIQKYVTGSDIKRVRKTLRLTQKKFAELVGVSKATMERWETKEDKITGPVVLLLKILEDHPEY | -1.55
HMNNQKATAVKVASGIVNLRSGPATSYETLDTVATGETLSVLAEKDGWFQVSRAGRTGWVAGWVVDVIRE | -0.499
HMNNSSIGERLKYQRKIKGYSQEELADRTNVTVRTIQRIEKEEVSPHLNTIKLLAIALDIEVDELVAL | -2.68
HMNNSVAYSTFLNDIRTNTLKDVDMTSNSETINVTKKDGTKYQTVMPMYDRDLLADLSKTDATVTGQP | 0.562
HMNNTIKFSVDIKNSGKRLDIFLSENVTQYTRSYLKRLIENSHVKLNNKILNSPSTKVKFQDQIIINNIE | -2.88
HMNNTIKFSVDTTNSGKRLDIFLAENIKQFTRSYLKKIISNNQVKLNNLVANSPSIKVKHSDLILINILE | -2.75
HMNNTVLSSVKSINMFLDANGGDAGQAFRIYNNTNPDSNPTESTYIFKVAEDGNTFVKGYLNLNGTTL | -0.267
HMNNVRIEHIDTIGTVRLHKKRGVKRVSLRIHQSGEIRVTQPLYLPFSAGVLFAKSHTEWIMKQKQK | 0.0763
HMNNWRRSLEREVTASLARGDRDIFDGLNRSFEAALITKALEHTGGRRIEAATLLGIGRNTLTRKIQDLGL | -2.11
HMNNYEGIVKSVSNSNVYIQVAGRTIGYTISPHTIIMVNGKNVPASELMPGQHVSYTNKGSKLSYININS | -1.17
HMNNYFPAYKGSATSIAPALKQMGVNNSYAYRSKIAAVNNITGYRGTPAQNTQMLNLLKQGRLIK | 0.349
HMNNYNDSVQKIINYIADNLNENLSVRKLADKMPMSVSHFNRVFQKYTGDSPYAYVMAMRIKKAKYL | -0.157
HMNPAIYIRKNILNLTQEKLSEYLDVTQPTIHRWEESGVIPAKHQRQIREFASEKGIYWNDSWFFSIPDE | -1.53
HMNPDMIAGVLKVPAAAGRLRSALFELGVVDDESYDDDGASRLTVTASQSDLERIVAQAGLVFEDVLVERR | -0.142
HMNPEAFIQTLKQILSTYEKNDPIYLQEIKADLVKKFRIEIPINALETYLKENGYSNIYLKR | -0.168
HMNPEDLSGVRKAAILLLTMDDEVTKDVMKGLDEEEIEAIGKEITNLKLIPDHVVHRVQEEFMTKVSK | 0.107
HMNPESRRSELIDAATKLFFSRGYTATSIRDILDAVDDRTASPSVFYYYFESKEAIYQAVLQRYTD | -2

Sequence | soluble fraction (log2)
HMNPETPAQQAVRKRLIVSVQFYRRLKDTPLKAVWQVAARDTLVNGYNLFLKRNIHAFNDRTLSTPSALS | -0.0445
HMNPFPDNTAEVLSQFKNIIVPELNTGQLSKLLRARYLVDTVGINKVEGLPFTAQELEEKIESLINSF | -0.428
HMNPGQIIRKLRQDQGMTLAVLAKYANLDPGNLSRIERDDLNISFNLLEKLSLILNVSPIVFFH | -0.119
HMNPLSELSFEERRELFLEAAVRLFEEKGYKNTSVEDIAGELGFTKKVFYYYWKNKREIVQEIHDRGMA | -0.594
HMNPNFIEVSHGRLRVNVPLSAYEGTTYHIKPEEAEKLKRTLASRYPWLTPNALKVFIEEAEQAMRERIQ | -0.403
HMNPSKEFNMSDLLKAKMVGDVSAAKRREKAGALLHIGYGNAKTFLKKLNHFSISREEWDKVIAAMEEF | -1.26
HMNPSVSSDERILLQKALGILSAEQKQIVMLHAVAGIKHREIAKLLDMPIATVLSKYSRAVNKLRHAMEA | -0.456
HMNPTTDFFKLEGIDATRILVFDQVGRQVAQFSQPAQQMDIQALPAGVYALRIENADGQVYSARIVK | -0.231
HMNPVVATTIILDGEIIKDNLAEANLSEEWLLEELKRQNFNDVKEVFYAEWLDGKQLFAYPYTK | -0.537
HMNQDIIEIGNNIQKIRKKNGISQSVLAEKIDVAGNSIYRMEGATTVMGVDKLINIADALNTSPMDILPAR | 0.0791
HMNQDMINFDKLSVRLKNVLIENNLKTVDSLLNYPAEEFEYLTNLGEKTLQELLTYRNELAASNNIQ | -0.51
HMNQGKLIEMLQEMKEIAHSQNNYLTKNEIANYLGDTVLSKEQLQAVYHYLGENHIEVEGYVYIP | ≥ 1.04
HMNQIATSTQAIITTLSFLNTSSIFKLPVGDTASRPTGVSPGTLRFNSQEDSAEIYKADDGTGSAGWTEVA | -0.296
HMNQIDEATAATITTLNFLNTNSEFKIPVGDTATRPGTPAIGMMRFNSENDKAEIYVADFDGDGNPGWINL | -0.0556
HMNQILDFTREVKNLPEQDKIKIVEALWSIIYSNKDADIYETNLMRRLAGLLYIDNKTMGDIKEKIKQNL | -0.906
HMNQNHFLDSVVEFAKDEASRAFFQKAVKKLGEGLVEEAMGEVKMREADGSVNSRAPYFIALLENWMENR | -0.0208
HMNQNIYVPKLEGLQIEEASSILKSKGLNIEITDSIFRKDAVPGAIIEQTPKPNSRVKTGRNIYVSIYSK | 0.385
HMNQSEMIGSRLKEERLQQKLTLKQLSEKVGLSIGYLSQVERGYGTLSLSALKKLSSALGLEMSTFFD | -2.43
HMNQTGQYENAAKRFNQLITIDSSDKRAYLQLGISNYNLGNKEKADSLFNIIRNSKDKLLIEELDNFLT | -0.102
HMNQYALTDREKNVLGLLVDGLSYKMIADKENISFHTVNAHVRKIYEKLHVHSLAEAVSKALKENL | -2.07
HMNQYRKLDGDVQNQIIYILSEYPKLPATIVYQRLLDTNTIVKKDVSLSTVNRFVQKYKDSKGIT | -1.19
HMNREDYIKAIFKIAEREGEASNQRIADSLGVSRASASEMVKKLIQEGFVVAEGRQLSLSAEGERIA | -0.185
HMNREEKKALTRRQIIDVATRLFRQHGIHNTDLKTIATEAGVSVVTFYKYFDSKEALIGTIAAEQ | -0.804
HMNRNHVFDSNGPDLRLRGTAQQLFEKYLQLGRDATSGGDRVMAEGYFQHAEHYFRILNAMNQAAMQH | -1.15
HMNRPYETLFTGLTTDEASAIVGKLEEYGAADYKIEGDTIKVPAAQEPDLKAKLLLDGYPKS | 0.231
HMNRTEYMAALRRALSVLPEEERASALRYYEEYFDDAGPENEEKVIADLGAPEKVAGQILADYRE | 0.0934

Sequence | soluble fraction (log2)
HMNSDQMKEHLDNLVDMAKKNDNTLIDTEIVNYFVGKPDIELNTDMMTKIFDYLDEHHVAVLS | 0.146
HMNSEFPFNGGRIVDNVPANRLQIFFDEKPDADVRTRLKQNGFRWAPNSGAWQSYRHGYTLDWARREFNA | -0.136
HMNSEPKTKLQEIAQERGLAAPVYETTHTGPDHDRIFSASVTVGDVVAAGEARSRKGAESEAAIAAIKALG | 0.195
HMNSFGWESLIDKEGIADTDLHPSGWVRIDDRRIFVVSEGDFIDKGSGVTVLSVDGNRVVVRELI | -1.38
HMNSHLEEGRHGLQIGDPGIVRARIESDPEGETDMPVVVIDGRNISWNEFGRMVATYTGFQFKLEM | -0.629
HMNSHQNELDNALTEAHTASRRLLEGTDEYLDLSSQPAYIRRLQHLLAQKYNLGSLSSGVEPNRHIRLLQ | -0.265
HMNSIDIENELVKIIEKNGQPMSFDDLVFKLDSLYSTRYKFAKGYIRTIILNSNRIASIGKTSTYSLYKWN | -3.12
HMNSKKETLLSYLYNHSTWSSRNDLSNFLNVSTRQVTNYINEINKNETIVLSSNKGYKINPKFIGKN | -1.61
HMNSKMTYSDLIGNIEQGNVSSVELASDGKSATVTLTDNSQKQVNIPSLDSFVTYVQDHIKAGTLSVEE | 0.344
HMNSKSDDELLSKTTSLLIHAAKIDENYTDKEKEIIKKTLIQLGVKESKADQIMLTAEINEE | ≥ 1.04
HMNSKYILLQVSDIPKTSLVLERQFGVTEYSVQDEHTLRIYDTSLDMAAVNKALVVQDIAVISSQL | -1.69
HMNSLFPLSLKYLREQANITQAELAQKLDVTQQAVGRWERGQTSPDYETLKRLSVLFNVSVDYLLGV | -1.1
HMNSNIIKTINDELSIRKGKYGPYIMYKTKKMKRPKFKSIGDNTPDEFLADKGSISEIILWIN | -0.527
HMNSSHRLIGLDPGLRVTGWGIVDAIGTKLVHVANGSVKSQQNAPLATRLLELENGLEEVFDNWQPDFA | 0.034
HMNSVLPQEVKSSLNDFFTKYAPGSIAQKLINHASFTGGKVVVTGVELTQTQADDLKKAFKDKFF | -0.00219
HMNSVTLEHIVYDFRVFNMLKGSGINDIDELIKAAEDGRLFKIIGSNLTYKRIKKSAAEFGVILPDKPG | -2.25
HMNSVYTPDPKELAKAIKIVTAAREAEQKGQGVIAVDGRMVDAPVVSQALRILELARLAGMEVSE | 0.0743
HMNTAIPIAIDQLRIGMYIQLGLNWMSHPFPVSSFRIASESQIEILRGLGLAEVRYVPAKSDPVP | -3.26
HMNTDEYEQKRGEILDAAQRLIYTKGYERMSIQDILDELKISKGAFYHYFDSKQSLLEALTARMMTE | -0.44
HMNTDIHRLLDEAFVRVDMTPDAQHLKEEIRANLVARVDELEASGVPSADAARRAIAELGDVRELL | 0.291
HMNTFDLSKLEEIILASRDKAMKTKEFTELDNLKNLFITAGLDVQMSKNGIKLIKGPKFNSSLLEDF | -0.878
HMNTIIIDILPKGLSIAGNQTEPKSLIQQLLMARRADPAQPILLRPAIAVPVQNVVELIDRLTAAGI | -0.306
HMNTISEADAKRIALERAGLTAADYVKVDYDQDDNEYEVEMRSGNTEYEVKISGSTGAVLEYDSETD | -0.358
HMNTISTLEITTKKDIRILDESELLKSKSSKNNIFNYLLASGDFNLLKDKLNEIDEFSDEIISYQLN | -0.788
